Experimental data published in paper PMC11389781.

Assays:
[1] = molecular target: human CaV2.2 α1B N1266C (VSD III labelling variant) (human) (UniProt Q00975)
[2] = molecular target: human CaV2.2 α1B N1580C (VSD IV labelling variant) (human) (UniProt Q00975)
[3] = molecular target: human CaV2.2 α1B D185C (VSD I labelling variant) (human) (UniProt Q00975)
[4] = molecular target: human CaV2.2 pore-forming subunit α1B (CACNA1B), wild type (human) (UniProt Q00975)

- shift of V0.5 of VSD III activation by coexpressed Gβγ (voltage-clamp fluorometry, ΔF-V); VSD III was not modulated by Gβγ [1]: -0.1 mV
- shift of V0.5 of VSD IV activation by coexpressed Gβγ (voltage-clamp fluorometry, ΔF-V); modest inhibition [2]: 13 mV
- shift of V0.5 of VSD I activation by coexpressed Gβγ (voltage-clamp fluorometry, ΔF-V) [3]: 21 mV
- shift of V0.5 of CaV2.2 pore opening toward positive potentials by coexpressed Gβγ (tail currents, cut-open oocyte voltage clamp, 20 ms pulses) [4]: 14 mV
Substance: Gβγ complex of human Gβ1 and Gγ2 (from UniProt P62873 1-340; P59768 1-71)
